From the RNAGym collection of RNA variant scans (doi:10.1021/acssynbio.7b00057)

B1: Pistol ribozyme (parent)
chain: GGGUCGUUGUUCCAUAAUCGCGUGGAUAUGGCACGCAAGUUUCUACCGGGCACCGUAAAUGUCCGACUGGAGCCGUUCGGGCGGCUAUAAACAGACCUCAGGCCCGAAGCGUGGCGGCACCUGCCGCCGGUGGUAAAAAAGAUCGGAAGAGCACACGUCU

Variants of: B1
Experiment: aptazyme ON/OFF ratio, guanine; higher = stronger switching; co-transcriptional cleavage with and without guanine

Variant | aptazyme ON/OFF ratio
GGGUCGACCUUGUAUAAUCGCGUGGAUAUGGCACGCAAGUUUCUACCGGGCACCGUAAAUGUCCGACUGGAGCCGUUCGGGCGGCUAUAAACAGACCUCAGGCCCGAAGCGUGGCGGCACCUGCCGCCGGUGGUAAAAAAGAUCGGAAGAGCACACGUCU [U7A U8C G9C C12G C13U] | 1.18
GGGUCGACCUUGGAUAAUCGCGUGGAUAUGGCACGCAAGUUUCUACCGGGCACCGUAAAUGUCCGACUGGAGCCGUUCGGGCGGCUAUAAACAGACCUCAGGCCCGAAGCGUGGCGGCACCUGCCGCCGGUGGUAAAAAAGAUCGGAAGAGCACACGUCU [U7A U8C G9C C12G C13G] | 1.09
GGGUCGACCUUGAAUAAUCGCGUGGAUAUGGCACGCAAGUUUCUACCGGGCACCGUAAAUGUCCGACUGGAGCCGUUCGGGCGGCUAUAAACAGACCUCAGGCCCGAAGCGUGGCGGCACCUGCCGCCGGUGGUAAAAAAGAUCGGAAGAGCACACGUCU [U7A U8C G9C C12G C13A] | 1.07
GGGUCGACAUGCUAUAAUCGCGUGGAUAUGGCACGCAAGUUUCUACCGGGCACCGUAAAUGUCCGACUGGAGCCGUUCGGGCGGCUAUAAACAGACCUCAGGCCCGAAGCGUGGCGGCACCUGCCGCCGGUGGUAAAAAAGAUCGGAAGAGCACACGUCU [U7A U8C G9A U11G C13U] | 1.22
GGGUCGACAUGCGAUAAUCGCGUGGAUAUGGCACGCAAGUUUCUACCGGGCACCGUAAAUGUCCGACUGGAGCCGUUCGGGCGGCUAUAAACAGACCUCAGGCCCGAAGCGUGGCGGCACCUGCCGCCGGUGGUAAAAAAGAUCGGAAGAGCACACGUCU [U7A U8C G9A U11G C13G] | 1.31
GGGUCGACAUGCAAUAAUCGCGUGGAUAUGGCACGCAAGUUUCUACCGGGCACCGUAAAUGUCCGACUGGAGCCGUUCGGGCGGCUAUAAACAGACCUCAGGCCCGAAGCGUGGCGGCACCUGCCGCCGGUGGUAAAAAAGAUCGGAAGAGCACACGUCU [U7A U8C G9A U11G C13A] | 1.27
GGGUCGACCUUACAUAAUCGCGUGGAUAUGGCACGCAAGUUUCUACCGGGCACCGUAAAUGUCCGACUGGAGCCGUUCGGGCGGCUAUAAACAGACCUCAGGCCCGAAGCGUGGCGGCACCUGCCGCCGGUGGUAAAAAAGAUCGGAAGAGCACACGUCU [U7A U8C G9C C12A] | 1.12
GGGUCGACCUUGCAUAAUCGCGUGGAUAUGGCACGCAAGUUUCUACCGGGCACCGUAAAUGUCCGACUGGAGCCGUUCGGGCGGCUAUAAACAGACCUCAGGCCCGAAGCGUGGCGGCACCUGCCGCCGGUGGUAAAAAAGAUCGGAAGAGCACACGUCU [U7A U8C G9C C12G] | 1.09
GGGUCGACAUGCCAUAAUCGCGUGGAUAUGGCACGCAAGUUUCUACCGGGCACCGUAAAUGUCCGACUGGAGCCGUUCGGGCGGCUAUAAACAGACCUCAGGCCCGAAGCGUGGCGGCACCUGCCGCCGGUGGUAAAAAAGAUCGGAAGAGCACACGUCU [U7A U8C G9A U11G] | 1.28
GGGUCGACCUUAUAUAAUCGCGUGGAUAUGGCACGCAAGUUUCUACCGGGCACCGUAAAUGUCCGACUGGAGCCGUUCGGGCGGCUAUAAACAGACCUCAGGCCCGAAGCGUGGCGGCACCUGCCGCCGGUGGUAAAAAAGAUCGGAAGAGCACACGUCU [U7A U8C G9C C12A C13U] | 1.07
GGGUCGACCUUAAAUAAUCGCGUGGAUAUGGCACGCAAGUUUCUACCGGGCACCGUAAAUGUCCGACUGGAGCCGUUCGGGCGGCUAUAAACAGACCUCAGGCCCGAAGCGUGGCGGCACCUGCCGCCGGUGGUAAAAAAGAUCGGAAGAGCACACGUCU [U7A U8C G9C C12A C13A] | 1.11
GGGUCGACCUUAGAUAAUCGCGUGGAUAUGGCACGCAAGUUUCUACCGGGCACCGUAAAUGUCCGACUGGAGCCGUUCGGGCGGCUAUAAACAGACCUCAGGCCCGAAGCGUGGCGGCACCUGCCGCCGGUGGUAAAAAAGAUCGGAAGAGCACACGUCU [U7A U8C G9C C12A C13G] | 1.14
GGGUCGACAUCUUAUAAUCGCGUGGAUAUGGCACGCAAGUUUCUACCGGGCACCGUAAAUGUCCGACUGGAGCCGUUCGGGCGGCUAUAAACAGACCUCAGGCCCGAAGCGUGGCGGCACCUGCCGCCGGUGGUAAAAAAGAUCGGAAGAGCACACGUCU [U7A U8C G9A U11C C12U C13U] | 1.19
GGGUCGACAUCUAAUAAUCGCGUGGAUAUGGCACGCAAGUUUCUACCGGGCACCGUAAAUGUCCGACUGGAGCCGUUCGGGCGGCUAUAAACAGACCUCAGGCCCGAAGCGUGGCGGCACCUGCCGCCGGUGGUAAAAAAGAUCGGAAGAGCACACGUCU [U7A U8C G9A U11C C12U C13A] | 1.22
GGGUCGACAUCUGAUAAUCGCGUGGAUAUGGCACGCAAGUUUCUACCGGGCACCGUAAAUGUCCGACUGGAGCCGUUCGGGCGGCUAUAAACAGACCUCAGGCCCGAAGCGUGGCGGCACCUGCCGCCGGUGGUAAAAAAGAUCGGAAGAGCACACGUCU [U7A U8C G9A U11C C12U C13G] | 1.16
GGGUCGACAUGUGAUAAUCGCGUGGAUAUGGCACGCAAGUUUCUACCGGGCACCGUAAAUGUCCGACUGGAGCCGUUCGGGCGGCUAUAAACAGACCUCAGGCCCGAAGCGUGGCGGCACCUGCCGCCGGUGGUAAAAAAGAUCGGAAGAGCACACGUCU [U7A U8C G9A U11G C12U C13G] | 1.22
GGGUCGACAUGUUAUAAUCGCGUGGAUAUGGCACGCAAGUUUCUACCGGGCACCGUAAAUGUCCGACUGGAGCCGUUCGGGCGGCUAUAAACAGACCUCAGGCCCGAAGCGUGGCGGCACCUGCCGCCGGUGGUAAAAAAGAUCGGAAGAGCACACGUCU [U7A U8C G9A U11G C12U C13U] | 1.32
GGGUCGACAUGUAAUAAUCGCGUGGAUAUGGCACGCAAGUUUCUACCGGGCACCGUAAAUGUCCGACUGGAGCCGUUCGGGCGGCUAUAAACAGACCUCAGGCCCGAAGCGUGGCGGCACCUGCCGCCGGUGGUAAAAAAGAUCGGAAGAGCACACGUCU [U7A U8C G9A U11G C12U C13A] | 1.28
